For orientation: Kd means the free concentration of one partner at which half of the binding sites on the other are occupied at equilibrium, for simple one-to-one binding.

This note sets out measurements from US20100036106.

The target of this series is Glutathione S-transferase (GST) (Schistosoma japonicum) (UniProt P08515). Kind of series: FP.
Sequence of Glutathione S-transferase (GST) (Schistosoma japonicum) (P08515 2-218): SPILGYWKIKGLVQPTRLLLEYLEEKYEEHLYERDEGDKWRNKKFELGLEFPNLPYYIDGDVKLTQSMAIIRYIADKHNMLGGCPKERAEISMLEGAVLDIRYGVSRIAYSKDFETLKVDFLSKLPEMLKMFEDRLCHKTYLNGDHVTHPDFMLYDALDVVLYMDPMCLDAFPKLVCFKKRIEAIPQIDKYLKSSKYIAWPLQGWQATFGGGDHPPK

Sequence “GGUAGAUACGAUGGANNNNNNNNNNNNNNNNNNNNNNNNNNNNNNCAUGACGCGCAGCCAA [18th RNA pool]” registered a Kd of 400 nM.
